Measured values taken from article PMC8899846.

B1: wt mouse RtcB-Flag (pCMV3-mRTCB-Flag) [mouse] / PTP1B-C215S (trapping mutant; pcDNA3.1/Zeo-PTP1B [not stated] (parent)
chain 1: MSRNYNDELQFLDKINKNCWRIKKGFVPNMQVEGVFYVNDALEKLMFEELRNACRGGGVGGFLPAMKQIGNVAALPGIVHRSIGLPDVHSGYGFAIGNMAAFDMNDPEAVVSPGGVGFDINCGVRLLRTNLDESDVQPVKEQLAQAMFDHIPVGVGSKGVIPMNAKDLEEALEMGVDWSLREGYAWAEDKEHCEEYGRMLQADPNKVSPRAKKRGLPQLGTLGAGNHYAEIQVVDEIFNEYAAKKMGIDHKGQVCVMIHSGSRGLGHQVATDALVAMEKAMKRDKIIVNDRQLACARIASPEGQDYLKGMAAAGNYAWVNRSSMTFLTRQAFAKVFNTTPDDLDLHVIYDVSHNIAKVEQHVVDGKERTLLVHRKGSTRAFPPHHPLIAVDYQLTGQPVLIGGTMGTCSYVLTGTEQGMTETFGTTCHGAGRALSRAKSRRNLDFQDVLDKLADMGIAIRVASPKLVMEEAPESYKNVTDVVNTCHDAGISKKAIKLRPIAVIKG
chain 2: MEMEKEFEQIDKSGSWAAIYQDIRHEASDFPCRVAKLPKNKNRNRYRDVSPFDHSRIKLHQEDNDYINASLIKMEEAQRSYILTQGPLPNTCGHFWEMVWEQKSRGVVMLNRVMEKGSLKCAQYWPQKEEKEMIFEDTNLKLTLISEDIKSYYTVRQLELENLTTQETREILHFHYTTWPDFGVPESPASFLNFLFKVRESGSLSPEHGPVVVHSSAGIGRSGTFCLADTCLLLMDKRKDPSSVDIKKVLLEMRKFRMGLIQTADQLRFSYLAVIEGAKFIMGDSSVQDQWKELSHEDLEPPPEHIPPPPRPPKRILEPHNGKCREFFPNHQWVKEETQEDKDCPIKEEKGSPLNAAPYGIESMSQDTEVRSRVVGGSLRGAQAASPAKGEPSLPEKDEDHALSYWKPFLVNMCVATVLTAGAYLCYRFLFNSNT

Variants of: B1
Test: co-immunoprecipitation (IP: PTP1B, immunoblot RtcB), band quantification
Details: with PTP1B-C215S (trapping mutant; pcDNA3.1/Zeo-PTP1B C215S); HEK cells, 1 μg RtcB-Flag plasmid and 1 μg PTP1B C215S plasmid; n = 3; parent: 100; read off a plot

percent of parent [% WT]	Variant
75	chain 1 Y316F
55	chain 1 Y475F

Further lines, the variant ahead of its results:

Variant	percent of parent [% WT]
chain 1 Y306F	100
chain 1 Y306F Y316F	37
chain 1 Y306F Y316F Y475F	38
